From paper doi:10.1101/2021.10.12.462922 (bioRxiv, 2021)
Like-named read-outs stand apart in the source and are kept apart here.

T1: HMG20A, human, recombinant from insect cells (human, UniProt Q9NP66 1-347)
T1 sequence: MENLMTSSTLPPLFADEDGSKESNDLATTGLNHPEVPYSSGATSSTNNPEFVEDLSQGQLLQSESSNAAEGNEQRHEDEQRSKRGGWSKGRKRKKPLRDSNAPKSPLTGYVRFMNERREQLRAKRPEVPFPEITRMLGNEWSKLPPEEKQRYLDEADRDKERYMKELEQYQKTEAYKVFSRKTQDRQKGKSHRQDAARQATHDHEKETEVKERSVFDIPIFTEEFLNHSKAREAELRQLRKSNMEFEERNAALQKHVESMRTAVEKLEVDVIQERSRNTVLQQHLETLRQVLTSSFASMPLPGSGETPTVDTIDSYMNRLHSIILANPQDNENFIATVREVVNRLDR

T2: PHF14 (human, UniProt O94880 1-948)
T2 sequence: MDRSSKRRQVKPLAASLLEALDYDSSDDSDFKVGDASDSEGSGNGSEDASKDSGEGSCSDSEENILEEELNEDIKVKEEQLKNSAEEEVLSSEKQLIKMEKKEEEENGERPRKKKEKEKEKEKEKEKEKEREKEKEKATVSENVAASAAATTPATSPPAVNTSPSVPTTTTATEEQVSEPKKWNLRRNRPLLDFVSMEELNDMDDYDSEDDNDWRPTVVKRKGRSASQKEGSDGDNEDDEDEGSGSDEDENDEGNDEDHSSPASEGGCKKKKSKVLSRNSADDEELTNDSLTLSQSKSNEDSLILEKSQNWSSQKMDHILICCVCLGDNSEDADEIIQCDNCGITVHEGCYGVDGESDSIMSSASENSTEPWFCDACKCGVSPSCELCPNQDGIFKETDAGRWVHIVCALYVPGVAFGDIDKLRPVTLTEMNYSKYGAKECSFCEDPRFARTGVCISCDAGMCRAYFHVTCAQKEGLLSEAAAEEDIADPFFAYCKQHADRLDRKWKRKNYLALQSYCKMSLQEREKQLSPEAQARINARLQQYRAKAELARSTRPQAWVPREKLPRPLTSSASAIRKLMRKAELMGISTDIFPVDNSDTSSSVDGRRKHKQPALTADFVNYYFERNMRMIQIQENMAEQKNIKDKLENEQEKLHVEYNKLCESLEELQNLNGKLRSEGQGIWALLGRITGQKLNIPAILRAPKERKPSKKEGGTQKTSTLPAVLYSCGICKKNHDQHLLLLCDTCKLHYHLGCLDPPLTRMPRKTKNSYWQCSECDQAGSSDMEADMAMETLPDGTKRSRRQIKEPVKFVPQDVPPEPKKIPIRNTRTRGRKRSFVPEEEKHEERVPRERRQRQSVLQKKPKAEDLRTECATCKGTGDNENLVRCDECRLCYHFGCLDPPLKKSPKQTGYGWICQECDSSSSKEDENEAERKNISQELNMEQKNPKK


Assays:
[1] = biological target: PHF14 (PHD finger protein 14), human, recombinant from insect cells (human) (UniProt O94880); assay: native gel or EMSA
[2] = biological target: T1, HMG20A, human, recombinant from insect …; assay: native gel or EMSA
PHF14;HMG20A = PHF14;HMG20A (human;human, UniProt O94880;Q9NP66 1-948;1-347, |); assay: EMSA
HMG20A [3] = biological target: T3, HMG20A (human, UniProt Q9NP66 1-347); assay: EMSA
PHF14;HMG20A;TCF20 = PHF14;HMG20A;TCF20 (human;human;human, UniProt O94880;Q9NP66;Q9UGU0 1-948;1-347;1-1960, ||); assay: EMSA
HMG20A [4] = biological target: T3, HMG20A; assay: EMSA; remark: listed apart in the source
PHF14 = biological target: T2, PHF14; assay: EMSA

Row | Binder | stoichiometry N [1] | stoichiometry N [2] | binding result (PHF14;HMG20A) | binding result (HMG20A [3]) | binding result (PHF14;HMG20A;TCF20) | binding result (HMG20A [4]) | binding result (PHF14)
1 | TCF20 (transcription factor 20), human, recombinant from insect cells (natural protein) MQSFREQSSYHGNQQSYPQEVHGSSRLEEFSPRQAQMFQNFGGTGGSSGSSGSGSGGGRRGAAAAAAAMASETSGHQGYQGFRKEAGDFYYMAGNKDPVTTGTPQPPQRRPSGPVQSYGPPQGSSFGNQYGSEGHVGQFQAQHSGLGGVSHYQQDYTGPFSPGSAQYQQQASSQQQQQQVQQLRQQLYQSHQPLPQATGQPASSSSHLQPMQRPSTLPSSAAGYQLRVGQFGQHYQSSASSSSSSSFPSPQRFSQSGQSYDGSYNVNAGSQYEGHNVGSNAQAYGTQSNYSYQPQSMKNFEQAKIPQGTQQGQQQQQPQQQQHPSQHVMQYTNAATKLPLQSQVGQYNQPEVPVRSPMQFHQNFSPISNPSPAASVVQSPSCSSTPSPLMQTGENLQCGQGSVPMGSRNRILQLMPQLSPTPSMMPSPNSHAAGFKGFGLEGVPEKRLTDPGLSSLSALSTQVANLPNTVQHMLLSDALTPQKKTSKRPSSSKKADSCTNSEGSSQPEEQLKSPMAESLDGGCSSSSEDQGERVRQLSGQSTSSDTTYKGGASEKAGSSPAQGAQNEPPRLNASPAAREEATSPGAKDMPLSSDGNPKVNEKTVGVIVSREAMTGRVEKPGGQDKGSQEDDPAATQRPPSNGGAKETSHASLPQPEPPGGGGSKGNKNGDNNSNHNGEGNGQSGHSAAGPGFTSRTEPSKSPGSLRYSYKDSFGSAVPRNVSGFPQYPTGQEKGDFTGHGERKGRNEKFPSLLQEVLQGYHHHPDRRYSRSTQEHQGMAGSLEGTTRPNVLVSQTNELASRGLLNKSIGSLLENPHWGPWERKSSSTAPEMKQINLTDYPIPRKFEIEPQSSAHEPGGSLSERRSVICDISPLRQIVRDPGAHSLGHMSADTRIGRNDRLNPTLSQSVILPGGLVSMETKLKSQSGQIKEEDFEQSKSQASFNNKKSGDHCHPPSIKHESYRGNASPGAATHDSLSDYGPQDSRPTPMRRVPGRVGGREGMRGRSPSQYHDFAEKLKMSPGRSRGPGGDPHHMNPHMTFSERANRSSLHTPFSPNSETLASAYHANTRAHAYGDPNAGLNSQLHYKRQMYQQQPEEYKDWSSGSAQGVIAAAQHRQEGPRKSPRQQQFLDRVRSPLKNDKDGMMYGPPVGTYHDPSAQEAGRCLMSSDGLPNKGMELKHGSQKLQESCWDLSRQTSPAKSSGPPGMSSQKRYGPPHETDGHGLAEATQSSKPGSVMLRLPGQEDHSSQNPLIMRRRVRSFISPIPSKRQSQDVKNSSTEDKGRLLHSSKEGADKAFNSYAHLSHSQDIKSIPKRDSSKDLPSPDSRNCPAVTLTSPAKTKILPPRKGRGLKLEAIVQKITSPNIRRSASSNSAEAGGDTVTLDDILSLKSGPPEGGSVAVQDADIEKRKGEVASDLVSPANQELHVEKPLPRSSEEWRGSVDDKVKTETHAETVTAGKEPPGAMTSTTSQKPGSNQGRPDGSLGGTAPLIFPDSKNVPPVGILAPEANPKAEEKENDTVTISPKQEGFPPKGYFPSGKKKGRPIGSVNKQKKQQQPPPPPPQPPQIPEGSADGEPKPKKQRQRRERRKPGAQPRKRKTKQAVPIVEPQEPEIKLKYATQPLDKTDAKNKSFYPYIHVVNKCELGAVCTIINAEEEEQTKLVRGRKGQRSLTPPPSSTESKALPASSFMLQGPVVTESSVMGHLVCCLCGKWASYRNMGDLFGPFYPQDYAATLPKNPPPKRATEMQSKVKVRHKSASNGSKTDTEEEEEQQQQQKEQRSLAAHPRFKRRHRSEDCGGGPRSLSRGLPCKKAATEGSSEKTVLDSKPSVPTTSEGGPELELQIPELPLDSNEFWVHEGCILWANGIYLVCGRLYGLQEALEIAREMKCSHCQEAGATLGCYNKGCSFRYHYPCAIDADCLLHEENFSVRCPKHKPPLPCPLPPLQNKTAKGSLSTEQSERG | 0.5 | 0.5 | – | – | – | – | –
2 | dsDNA (dsDNA) DNA 1: CCCTATAACCCCTGCATTGAATTCCAGTCTGATAA DNA 2: TTTATCAGACTGGAATTCAATGCAGGGGTTATAGGG | – | – | binds | binds | binds | – | –
3 | 4WJ (four-way junction, Holliday junction) (structured_DNA) DNA 1: CCCTATAACCCCTGCATTGAATTCCAGTCTGATAA DNA 2: GTAGTCGTGATAGGTGCAGGGGTTATAGGG DNA 3: AACAGTAGCTCTTATTCGAGCTCGCGCCCTATCACGACTA DNA 4: TTTATCAGACTGGAATTCAAGCGCGAGCTCGAATAAGAGCTACTGT | – | – | binds | – | binds | binds | no binding
